Data published in patent US20120258145A1.

Target: stomach proteases of BALB/c mice
Test: cell-based or functional assay

Work on “non-lipidated Omp19S polypeptide of Brucella abortus, recombinant from E. coli, with a histidine tai (from UniProt P0A3P1 22-177)” yielded an inhibitory effect on the action of stomach proteases of over 30%.
